B1: Intraflagellar transport protein 25 (Chlamydomonas reinhardtii), B8LIX8 (parent)
chain: MKDYAREENGGLVVMASCSDERFPPENMLDGKDNTFWVTTGMFPQEFVLRLESCIRVSKITTLSLNVRKLAVEKCDQDKPDQFEKVFEVELANRGDRLQTEVHQVNIRAKYLKFILLQGHGEFATVNRVSVVGGDDDGGGYDEPGGGYGSMQRQPSMGYGGGGGSAATGFAADPGNAAAGGGGGFEDEF
partner: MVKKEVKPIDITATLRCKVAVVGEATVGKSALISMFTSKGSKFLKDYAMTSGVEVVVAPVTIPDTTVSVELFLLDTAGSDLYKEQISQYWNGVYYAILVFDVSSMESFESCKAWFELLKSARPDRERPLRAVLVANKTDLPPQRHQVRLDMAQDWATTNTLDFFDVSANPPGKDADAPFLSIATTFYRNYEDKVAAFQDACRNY

Variants of: B1
Details: with ift27_chlre IFT27, A8HN58

| Variant | effect of a mutation on the interaction |
| --- | --- |
| MKDYAREENGGLVVMASCSDERFPPENMLDGKDNTFWVTRGMFPQEFVLRLESCIRVSKITTLSLNVRKLAVEKCDQDKPDQFEKVFEVELANRGDRLQTEVHQVNIRAKYLKFILLQGHGEFATVNRVSVVGGDDDGGGYDEPGGGYGSMQRQPSMGYGGGGGSAATGFAADPGNAAAGGGGGFEDEF | disrupting interaction |
| MKDYAREENGGLVVMASCSDERFPPENMLDGKDNTFWVTTGMFPQEFVLRLESCIRVSKITTLSLNVRKLAVEKCDQDKPDQFEKVFEVELANRGDRLQTEVHQVNIRAKYLKFILLQGHGEFAEVNRVSVVGGDDDGGGYDEPGGGYGSMQRQPSMGYGGGGGSAATGFAADPGNAAAGGGGGFEDEF | disrupting interaction |
| MKDYAREENGGLVVMASCSDERFPPENMLDGKDNTFWRTTGMFPQEFVLRLESCIRVSKITTLSLNVRKLAVEKCDQDKPDQFEKVFEVELANRGDRLQTEVHQVNIRAKYLKFILLQGHGEFATVNRVSVVGGDDDGGGYDEPGGGYGSMQRQPSMGYGGGGGSAATGFAADPGNAAAGGGGGFEDEF | disrupting interaction |

From IntAct's records for PubMed 21505417
